Laboratory results as given in the DeepSol protein solubility set.

Experiment: soluble on expression in E. coli; label from the status in PepcDB or PDB records

Sequence	soluble on expression in E. coli
MGGSHHHHHHGMASALAELSEEALLSVLPTIRVPKAGDRVHKDECAFSFDTPESEGGLYICMNTFLGFGKQYVERHFNKTGQRVYLHLRRTRRPKEEDPATGTGDPPRKKPTRLAIGVEGGFDLSEEKFELDEDVKIVILPDYLEIARDGLGGLPDIVRDRVTSAVEALLSADSASRKQEVQAWDGEVRQVSKHAFSLKQLDNPARIPPCGWKCSKCDMRENLWLNLTDGSILCGRRYFDGSGGNNHAVEHYRETGYPLAVKLGTITPDGADVYSYDEDDMVLDPSLAEHLSHFGIDMLKMQKTDKTMTELEIDMNQRIGEWELIQESGVPLKPLFGPGYTGIRNLGNSCYLNSVVQVLFSIPDFQRKYVDKLEKIFQNAPTDPTQDFSTQVAKLGHGLLSGEYSKPVPESGDGERVPEQKEVQDGIAPRMFKALIGKGHPEFSTNRQQDAQEFFLHLINMVERNCRSSENPNEVFRFLVEEKIKCLATEKVKYTQRVDYIMQLPVPMDAALNKEELLEYEEKKRQAEEEKMALPELVRAQVPFSSCLEAYGAPEQVDDFWSTALQAKSVAVKTTRFASFPDYLVIQIKKFTFGLDWVPKKLDVSIEMPEELDISQLRGTGLQPGEEELPDIAPPLVTPDEPKAPMLDESVIIQLVEMGFPMDACRKAVYYTGNSGAEAAMNWVMSHMDDPDFANPLILPGSSGPGSTSAAADPPPEDCVTTIVSMGFSRDQALKALRATNNSLERAVDWIFSHIDDLDAEAAMDISEGRSAADSISESVPVGPKVRDGPGKYQLFAFISHMGTSTMCGHYVC	not soluble
MSLPRLGIILHGVTGRMGYNQHLVRSILAIRDRGGITLQSGERLEIDPIIVGRNRDKMEQLAKRHDIARWSTDLDAALADPNDQIFFDAGTTLMRAELIGRALDAGKHVYCEKPISDDLRTAVKLARKARASGLKHGVVQDKLFLPGLRKLALLRDSGFFGKILSVRGEFGYWVFEGDWGVPAQRPSWNYRKKDGGGIILDMLCHWRYVLDNLFGEVKAVSCLGATHIPSRIDEQGRAYDCDTDDAAYATFELEGGIVAHINSSWAVRVRRDDLVTFQVDGTHGSAVAGLTKCWTQHRVNTPKPVWNPDQPQTIDFYRTWDEVPDTQAFDNGFKAQWEMFLRHVAEDGPWPHGLEAGAKGVQLAELGLKSWAERRWLDVPELEGHHHHHH	not soluble
RPVGTIFVIGDTKEVMKHSHQLVPNPFKGHKINIMNPKVKPIIKEFSFLDGAFIISSTGRVVAAGRYLDVDPKKLEIDIPQGLGSRHLASAAITKVTKAIAITLSESGVIRVFKDGK	soluble
MSLDRELKNLHLNISQLAALSGAHRQTVAARVKNISPAGGHESNLKLYRLTDILAELMKAPLPVDNEEMDPHARKAWYQSERDRLKFEQETGQLVPVSDVRRSFSVVVKAIVQVLETWPDRLERDRGWTASQLNEVQIVVDEIRDTLEKAVIDCCDEADEGHHHHHH	soluble
LFDRVLVAYDFSKWADRALEYAKFVVKKTGGELHIIHVSEDGDKTADLRVMEEVIGAEGIEVHVHIESGTPHKAILAKREEINATTIFMGSRGAGSVMTMILGSTSESVIRRSPVPVFVCKRGDDE	not soluble
GMADKTGTPHPLTEPGVWIERIGGRVFPPHLPALFLDRDGTINVDTDYPSDPAEIVLRPQMLPAIATANRAGIPVVVVTNQSGIARGYFGWSAFAAVNGRVLELLREEGVFVDMVLACAYHEAGVGPLAIPDHPMRKPNPGMLVEAGKRLALDLQRSLIVGDKLADMQAGKRAGLAQGWLVDGEAAVQPGFAIRPLRDSSELGDLLAAIETLGRDNRS	soluble
RNVSFRMQPIRIPMGMIGGFIGGQIDEMISTSKDRRIDWSEVYSKDTLYGRGNSG	soluble
MKYKDLRDFIAMLEQQGKLKRVAHPVSPHLEMTEIADRVLRAEGPALLFENPVKPDGTRYDYPVLANLFGTPERVAMGMGADSVSKLREIGQTLAYLKEPEPPKGIKDAFSKLPLLKDIWSMAPNVVKNAPCQEIVWEGEDVDLYQLPIQHCWPEDVAPLVTWGLTVTRGPHKKRQNLGIYRQQLIGKNKLVMRWLSHRGGALDYQEFRKLNPDTPYPVAVVLGCDPSTILGAVTPVPDTLSEYQFAGLLRGSRTELVKCIGSDLQVPARAEIVLEGVIHPNETALEGPYGDHTGYYNEQGHFPVFTVERITMRENPIYHSTYTGKPPDEPAVLGVALNEVFVPLLQKQFSEITDFYLPPEGCSYRMAVVSMKKQYAGHAKRVMTGCWSFLRQFMYTKFIIVVDDDVNVRDWKEVIWAVTTRMDPVRDTVLVENTPIDYLDFASPVSGLGGKMGLDATSKWPGETDREWGRVIKKDPAVTVKIDGIWGKLGLLEHHHHHH	not soluble
